{
  "source": "the DeepSol protein solubility set",
  "data": [
    {"experiment": "soluble on expression in E. coli; label from the status in PepcDB or PDB records", "values": [
      {"sequence": "MSLDFAMLPPEVNSTRMYSGPGAGSLWAAAAAWDQVSAELQSAAETYRSVIASLTGWQWLGPSSVRMGAAVTPYVEWLTTTAAQARQTATQITAAATGFEQAFAMTVPPPAIMANRAQVLSLIATNFFGQNTAAIAALETQYAEMWEQDATAMYDYAATSAAARTLTPFTSPQQDTNSAGLPAQSAEVSRATANAGAADGNWLGNLLEEIGILLLPIAPELTPFFLEAGEIVNAIPFPSIVGDEFCLLDGLLAWYATIGSINNINSMGTGIIGAEKNLGILPELGSAAAAAAPPPADIAPAFLAPLTSMAKSLSDGALRGPGEVSAAMRGAGTIGQMSVPPAWKAPAVTTVRAFDATPMTTLPGGDAPAAGVPGLPGMPASGAGRAGVVPRYGVRLTVMTRPLSGEGHHHHHH", "soluble on expression in E. coli": "soluble"},
      {"sequence": "MSLDFNTLAQNFTQFYYNQFDTDRSQLGNLYRNESMLTFETSQLQGAKDIVEKLVSLPFQKVQHRITTLDAQPASPYGDVLVMITGDLLIDEEQNPQRFSQVFHLIPDGNSYYVFNDIFRLNYSA", "soluble on expression in E. coli": "soluble"},
      {"sequence": "MSLDFSIPEEYMMLKESMREFVKRELMPLEKTLLERELSLWTEPGHLIPDEDHKRLMQKTKELGFWGLEVDEEFGGQGLGMLAKTLVVEELSKSLVGFSNHGFTLPPDAPNLYYLHECCGPRQREKYFVPYCNGDVDSAMACTEPGAGSDVSGLKTKAVKKGDKWVINGTKSFISKCDYDNVFFIVIAVTDPSASTKDRFTAFLIDREHPGVRIGKEIPVIGPMPTWDLILEDVEVDDDAILGDVGKAFIPLQNRFGVRRIELASSCTGMAERLIQMMIDQANTRITFGQPLAERGTIQNWIADSTMELEQVRWLLYYAAWKSDQGHKDLRIEGASVKVAATEMLTRVADRAIQIHGGLGVSHELGIEYVARHVRLWRIVEGPSEVHRWLVARQLLKEGHHHHHH", "soluble on expression in E. coli": "not soluble"},
      {"sequence": "MSLDGKVAVLTGTKKIEVKKLPVPEINDDEMLVKVEGCGVCGTDVFEYKSDPFNYIPVNLGHEGTGEIVKMGKNVKNDWTGKTLKIGDKIVCGPAANGDIYGLMGGEKHYFNGWLANYMVINPNSVVFNVSDMPLDLRILIEPAAVSCHAVAKSKEIYTFKHSSSVVVQGVGPIGLMVIAQMKTLGVRHIIAVDGNASRLELAKKIGATATVNIDDGDSVAAVKELTDGKGANFVFQCTGSTKGASTAWKFLTDHGGICEVGFFVDNGEATYNPHFDVCMPETKITGSWAYVPEDWVEATEFLRETKDEGLDMTQLITNVYPLDQMNEAMAKNMSGTGVKIVYKNNEGHHHHHH", "soluble on expression in E. coli": "soluble"},
      {"sequence": "MSLDLGSNSFHMVIARVVDGAMQIIGRLKQRVHLADGLGPDNMLSEEAMTRGLNCLSLFAERLQGFSPASVCIVGTHTLRQALNATDFLKRAEKVIPYPIEIISGNEEARLIFMGVEHTQPEKGRKLVIDIGGGSTELVIGENFEPILVESRRMGCVSFAQLYFPGGVINKENFQRARMAAAQKLETLTWQFRIQGWNVAMGASGTIKAAHEVLMEMGEKDGIITPERLEKLVKEVLRHRNFASLSLPGLSEERKTVFVPGLAILCGVFDALAIRELRLSDGALREGVLYEMEGRFRHQDVRSRTASSLANQYHIDSEQARRVLDTTMQMYEQWREQQPKLAHPQLEALLRWAAMLHEVGLNINHSGLHRHSAYILQNSDLPGFNQEQQLMMATLVRYHRKAIKLDDLPRFTLFKKKQFLPLIQLLRLGVLLNNQRQATTTPPTLTLITDDSHWTLRFPHDWFSQNALVLLDLEKEQEYWEGVAGWRLKIEEESTPEIAAEGHHHHHH", "soluble on expression in E. coli": "not soluble"},
      {"sequence": "MSLDLHTHTIYSDGIGSVIDNVNMAEIRGLRLLGISDHIHFFTPSKFLKYVNEVRSIGREAEIPVLVGIEANITENGPDVTEDFAKHLDYVIASVHDWFGEGEVYRYIERIKLALMDENVTIIGHFGNVFPWIGYPTEEQIKEVLDVAEEYGKAFEISSRYRVPDLEFVKMCIKRGIKLVFASDAHRPEDVGRVDWSIKVFEKAGGKKEDLLFSEEGHHHHHH", "soluble on expression in E. coli": "soluble"},
      {"sequence": "MSLDLKEIVQAGAFDLHIHTTASDGEYSPTAIVKKAKEIGLRTIAITDHDTLDGIEEAVIAGKRHGINVIPAIELTTKYKGTNVDILGYNVKASEKLQAILVQLKKHREGRAMQIIEKFNDIGFTITLDEVKQFSEDGVIARPHIAKAIVKKGYVLDYQTVFDEYLADGKPCAIDKMILTPEEGIKLIHEAGGKAILAHPVYLEDTLVRELLALDFDGIEVWHRNHDETDQEKYKMLATEFALIKTGGSDFHTDEHSLGQFGWKADEEGHHHHHH", "soluble on expression in E. coli": "soluble"},
      {"sequence": "MSLDLLISNCTVFGREGSDAIGINEGRIAFIGIDRDLRAKKRIDLSGKIVFPGFIDSHAHLLSTGLEDIRLNLYHTKSKEEVVERIAEYSKGKEKVIAYRWDESMWKPQSSYLTSSDINGIPVPVVAFRRDGHMAVANQKAMDVIGTTRKEGIFKEDDIELLEPLVKPNEAEIRDALNTAANRAISLGIVAVRDMVDISTYNEYKNIKTPLKIYKVLYSDSIFDKFGTSSQNDWGIKAFLDGSLGSRTAAHKGWDASNLKMDESKFENFAKQIWMHNLPLAVHAIGEVAVETAAKVFYRNAGRNRNSIEHFELVDDDVLDYITKTTIISSQPNFLEWAGKGGMYEDRVGGEWLYKNNPFRWMIDRGIHLAFGSDSMPIGPMYGIYYAVNSEYQRQKITLEEAVRCYSEGGSYLLGTEGYMGMLRVGYSADMAVFDEKLLKDLRGIKAAKPEITIINGKIYTNEGHHHHHH", "soluble on expression in E. coli": "not soluble"},
      {"sequence": "MSLDLMTKLKIYNGEEIVEKASIKKIEREELEEECRQKEGMTGVSTRFIIKAINNAICESNCSCINPIDVINSLITAVKEKDLCEEVEDKYISFLEDVVRKEYNKILYKEITKFFIESFNSQGEALFNNYLDHAEAYVNKVYLKDNITGENLDPDEEFMREIEEEIGVTENSSKGFRKDVVAYILYLIRKGEEINCNCYKPLKEAIERKLISSSREISRIINPSKIRNKAQDEKYKFIVEKLKNNGYCDTCAFYTLRYAANNFWRDEGHHHHHH", "soluble on expression in E. coli": "not soluble"},
      {"sequence": "MSLDLSVDRSSPVPLYFQLSQQLEAAIEHGALTPGSLLGNEIELAARLGLSRPTVRQAIQSLVDKGLLVRRRGVGTQVVHSKVRRPLELSSLYDDLEAAGQRPATKVLVNTVVPATAEIAAALGVAEDSEVHRIERLRLTHGEPMAYLCNYLPPGLVDLDTGQLEATGLYRLMRAAGITLHSARQSIGARAATSGEAERLGEDAGAPLLTMERTTFDDTGRAVEFGTHTYRPSRYSFEFQLLVRP", "soluble on expression in E. coli": "soluble"},
      {"sequence": "MSLDNKGDIWYDLISAVHKSIRGSDPDAALYWAARMISAGCDPLYIARRLLAIASEDVGNADPRGMQVALAAWDCFTRVGPAEGERAIAQAIVYLACAPKSNAVYTAWKQALSDAHNLPEFEVPPHLRNAPTRLMKDLGYGEEYRYAHDEPGAYAAGECYFPPEMSGTRYYQPTPRGLETKIAEKLAYLADLNAKSPQKEGHHHHHH", "soluble on expression in E. coli": "soluble"},
      {"sequence": "MSLDQVDKALTPKEKAETGVPFYASNQAGIITAQQTYCYIASFDIQTESRQILQDLFVKWTKFADLTTSGGVLRDVDNDMLPPNDTGEADGLGISNFTVTLGYGPTFFEKDGKDRFGVKAKKPKYLEKIPHMAHDSLDEAYSDGDLCIQVCADDQQVAFHGIRNFIRLASGVAVVRWIEEGFLSAPKNETPRNLFGFKDGTANVDHDSNKGYKDVVWAEKDEPEWMRNGSYLGYRKIQMLIEIWDRSSLLDQEDTFGRKKASGAPYHKKHEHDKVDPSKLPADSHVRLAKDTKQQMHRRAYSYTNGIDKSTGTIDAGLLFICFTQNPAKQFLPMLSIMGKMDKLNEYTVPIGSAMFACQGGLAPGEIFGEKLLEGHHHHHH", "soluble on expression in E. coli": "soluble"},
      {"sequence": "MSLDRIKEYLQDKGKVTVNDLAQALGKDSSKDFRELIKTLSLMERKHQIRFEEDGSLTLEAKKKHEITLKGIFHAHKNGFGFVSLEGEEDDLFVGKNDVNYAIDGDTVEVVIKKVADRNKGTAAEAKIIDILEHSLTTVVGQIVLDQEKPKYAGYIRSKNQKISQPIYVKKSALKLEGTEVLKVFIDKYPSKKHDFFVASVLDVVGHSTDVGIDVLEVLESMDIVSEFPEAVVKEAESVPDAPSQKDMEGRLDLRDEITFTIDGADAKDLDDAVHIKALKNGNLELGVHIADVSYYVTEGSALDKEALNRATSVYVTDRVVPMLPERLSNGICSLNPQVDRLTQSAIMEIDKHGRVVNYTITQTVIKTSFRMTYSDVNDILAGDEEKRKEYHKIVSSIELMAKLHETLENMRVKRGALNFDTNEAKILVDKQGKPVDIVLRQRGIAERMIESFMLMANETVAEHFSKLDLPFIYRIHEEPKAEKVQKFIDYASSFGLRIYGTASEISQEALQDIMRAVEGEPYADVLSMMLLRSMQQARYSEHNHGHYGLAADYYTHFTSPIRRYPDLLVHRMIRDYGRSKEIAEHFEQVIPEIATQSSNRERRAIEAEREVEAMKKAEYMEEYVGEEYDAVVSSIVKFGLFVELPNTVEGLIHITNLPEFYHFNERDLTLRGEKSGITFRVGQQIRIRVERADKMTGEIDFSFVPSEFDVIEKGLKQSSRSGRGRGSNRRSDKKEDKRKSGRSNDKRKHSQKDKKKKGKKPFYKEVAKKGAKHGKGRGKGRRTKEGHHHHHH", "soluble on expression in E. coli": "not soluble"},
      {"sequence": "MSLDSPTASSNGDLIEEIQASSTSTDPRTFTGLSIVEDIGDVVPVTDNASPALPVSLTDADGNDVVVEDVSRILPLDLYGTYSKTIAGLGLVDNIVGRTVSSTEPALADTEVVTTGGHTLNAEAILNLHPTLVIIDHSIGPREVIDQIRAAGVATVIMSPQRSIASIGDDIRDIASVVGLPEEGEKLAERSVAEVEEASTVVDELTPEDPLKMVFLYARGTGGVFFILGDAYGGRDLIEGLGGVDMAAEKGIMDLAPANAEALAELNPDVFVMMSEGLVSTGGIDGLMERPGIAQTTAGQNQRVLALPDGQSLAFGAQTGELLLRASRELYVQGGEGHHHHHH", "soluble on expression in E. coli": "soluble"},
      {"sequence": "MSLDSRKPGHRPVTMRDVAKAAGVSRMTVSRALKKDSPISSETRERILKVVKDMNYVPDQVAGSLTTKRSGFVGLLLPSLNNLHFAQTAQSLTDVLEQGGLQLLLGYTAYSPEREEQLVETMLRRRPEAMVLSYDGHTEQTIRLLQRASIPIVEIWEKPAHPIGHTVGFSNERAAYDMTNALLARGFRKIVFLGEKDDDWTRGAARRAGFKRAMREAGLNPDQEIRLGAPPLSIEDGVAAAELILQEYPDTDCIFCVSDMPAFGLLSRLKSIGVAVPEQVSVVGFGNFEVSRFASPEISTVRVDPIAIGRETGSLILRLLDPKQRSPQTAQHITLPPVLEFRPSLKNEGHHHHHH", "soluble on expression in E. coli": "soluble"},
      {"sequence": "MSLDTIKVGFNIPLTGDIPKVGESSKFAAEILKGEINAAGGLKVGDKTYQLEFIYEDNESKAESATATALKLITQDGVLAIIGPQSSKQAIPAGQVCNDNKTPMISPWSTNPKTTENRPYVFRACFLDPFQGPVAAKFVTEEFKAKKAAVLYDIASDYPKGLAEFFKDAFEKIHGPGSVVAFETFTTKDKDFSAQLTKIVASGADVLFTPQYYDEVPLIVKQAQELGWKKPIMGSDSWGSAELMKLCGDACKGYCFSTHYAAAGAKGATKEFIDKYNTKYGYVPDDVAALTWDAINLLFTAVKNTGGLSGNLDKDRDAIKDKLTQVKDFEGITGKMTFAPGGNPTKCAVVVKISDKGEFEFFKSEGHHHHHH", "soluble on expression in E. coli": "soluble"},
      {"sequence": "MSLDVEDTVKKLNLKFRNIEGERLILAITCDENKNVLMVAFMNEEALKKTLETGYMHYYSTSRKKLWRKGEESGNVQKLIKFYRDCDGDALLFIVEQKGVACHEGYYSCFHYKIEDGELKITGEYYSKREGHHHHHH", "soluble on expression in E. coli": "soluble"}
    ]}
  ]
}
